This series in a line: Remaining lysine decarboxylase activity of cell free extract after incubation at 68° C. It is filed as biochemical, Escherichia coli. The settings on record: 68° C., 1 hour, FIG. 1. The protocol:
The activity of the lysine decarboxylase was measured according to the method described in JP patent application laid-open Publication No. 2008-193899. 0.1 mL of a microbial cell suspension or a treated product thereof was added to 1 mL of a reaction solution containing 100 mM MES-NaOH buffer (pH 6.0), 10 g/L (55 mM) of L-lysine hydrochloride and 26.5 mg/L (0.1 mM) of PLP, and then the reaction mixture was incubated at 37° C. for 5 minutes. 0.1 mL of the reaction solution was collected and added to 1 mL of 1% (v/v) phosphoric acid to stop the reaction. Lysine and 1,5-PD were quantified with HPLC by a post column OPA method (S. R. Vale and M. B. Gloria, Journal Of AOAC International (1997) vol. 80, p. 1006-1012) or a method of quantifying remaining L-lysine using a biosensor BF-5 (Oji Scientific Instruments Co., Ltd.). One unit was defined as an activity that formed 1 μmol of 1,5-PD in one minute under this condition.
A combination mutant for increasing the amount of expressed CadA was constructed using QuikChange™ Site-Directed Mutagenesis Kit (Stratagene). A mutation to alter from Val (GTT) to Ile ([…]) at position 3 was introduced using the plasmid pCadA233 as the template and using oligonucleotides v3i_r (5′-cat gtg att caa tat tgc aat aat gtt cat cta cat tcc tcc tta cg-3′(SEQ ID NO:11)) and v3i_f (5′-cgt aag gag gaa tgt aga tga aca tta ttg caa tat tga atc aca tg-3′ (SEQ ID NO:12)) as primers according to a protocol. The nucleotide sequence of the constructed plasmid was determined by the method described in Example 2 to confirm that the objective mutation had been introduced, and this plasmid was designated as pCadA234. Microbial cells of E. coli JM109/pCadA234 expressing this double mutant CadA234 at high level were cultured to prepare a cell free extract in the same manner as in Example 2. The activity in this cell free extract was 663 U/mL, which was almost the same as that from the strain expressing the wild-type enzyme.
The resulting cell free extract was diluted to 20 fold with 0.1 M MES-NaOH buffer (pH 6.0). Each crude enzyme solution was incubated at 68° C., which is a higher temperature than in Example 2, and the remaining activity was measured over time. After incubation at 68° C. for one hour, the wild-type enzyme was inactivated to 27% while the single mutant enzymes V3I and A590T were inactivated to 47% and 27%, respectively. On the contrary, the double mutant enzyme retained 70% of its activity, and even after 3 hours, still retained about 60% of its activity (FIG. 1). Therefore, it was shown that the double mutation has a synergistic effect and further improved the thermal stability.

B1: pCadA220: wild-type lysine decarboxylase (CadA) derived from Escherichia coli W3110, expressed from plasmid pCadA220 (protein, UniProt P0A9H3 1-715, looked up)
Inducible lysine decarboxylase: MNVIAILNHMGVYFKEEPIRELHRALERLNFQIVYPNDRDDLLKLIENNARLCGVIFDWDKYNLELCEEISKMNENLPLYAFANTYSTLDVSLNDLRLQISFFEYALGAAEDIANKIKQTTDEYINTILPPLTKALFKYVREGKYTFCTPGHMGGTAFQKSPVGSLFYDFFGPNTMKSDISISVSELGSLLDHSGPHKEAEQYIARVFNADRSYMVTNGTSTANKIVGMYSAPAGSTILIDRNCHKSLTHLMMMSDVTPIYFRPTRNAYGILGGIPQSEFQHATIAKRVKETPNATWPVHAVITNSTYDGLLYNTDFIKKTLDVKSIHFDSAWVPYTNFSPIYEGKCGMSGGRVEGKVIYETQSTHKLLAAFSQASMIHVKGDVNEETFNEAYMMHTTTSPHYGIVASTETAAAMMKGNAGKRLINGSIERAIKFRKEIKRLRTESDGWFFDVWQPDHIDTTECWPLRSDSTWHGFKNIDNEHMYLDPIKVTLLTPGMEKDGTMSDFGIPASIVAKYLDEHGIVVEKTGPYNLLFLFSIGIDKTKALSLLRALTDFKRAFDLNLRVKNMLPSLYREDPEFYENMRIQELAQNIHKLIVHHNLPDLMYRAFEVLPTMVMTPYAAFQKELHGMTEEVYLDEMVGRINANMILPYPPGVPLVMPGEMITEESRPVLEFLQMLCEIGAHYPGFETDIHGAYRQADGRYTVKVLKEESKK
On to B1, for which the “remaining activity after incubation at 68° C. for one hour” value worked out at 27%.

These data come from patent publication US10358638B2, “Method of producing 1,5-pentadiamine using lysine decarboxylase mutant having improved thermal stability” (AJINOMOTO CO., INC., priority 2014, dated 2019).
